Test results reported in paper PMC3561992.

T1: AtCyp59 full-length (Arabidopsis thaliana, UniProt Q6Q151 1-506)
T1 sequence: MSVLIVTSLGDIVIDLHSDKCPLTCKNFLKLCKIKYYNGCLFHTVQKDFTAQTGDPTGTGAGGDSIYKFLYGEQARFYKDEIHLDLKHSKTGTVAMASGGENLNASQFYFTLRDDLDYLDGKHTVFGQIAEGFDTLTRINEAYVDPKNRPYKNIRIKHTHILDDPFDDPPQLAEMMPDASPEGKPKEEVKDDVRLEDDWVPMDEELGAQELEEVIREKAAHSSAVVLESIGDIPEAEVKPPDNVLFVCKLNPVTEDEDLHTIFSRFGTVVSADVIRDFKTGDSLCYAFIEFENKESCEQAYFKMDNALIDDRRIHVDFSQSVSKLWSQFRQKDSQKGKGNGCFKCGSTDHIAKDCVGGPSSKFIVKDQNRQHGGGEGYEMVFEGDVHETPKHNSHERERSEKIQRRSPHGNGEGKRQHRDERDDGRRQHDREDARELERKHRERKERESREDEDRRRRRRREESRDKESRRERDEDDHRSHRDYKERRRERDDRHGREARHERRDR


Target: T1, AtCyp59 full-length
Assay: EMSA

Kd, 120 ± 25 nM:
GAUGCCG (ssRNA)
GUCGCCA (ssRNA)
GUGGCCG (ssRNA)
GUAGCCG (ssRNA)
GCCGCCG (ssRNA)
GGUGCCG (ssRNA)
GCCGCCA (ssRNA)
GUUGCCG (ssRNA)
GUAGCCA (ssRNA)
GAUGCCA (ssRNA)
GUGGCCA (ssRNA)
GUCGCCG (ssRNA)
GCGGCCG (ssRNA)
GCGGCCA (ssRNA)
GCUGCCG (ssRNA)
GACGCCA (ssRNA)
GGAGCCA (ssRNA)
